Assays:
[1] = system: blood–brain barrier (BBB); experiment: 125I-insulin BBB transport, multiple-time regression analysis (Ki); type: in vivo, mice (human E3- and E4-targeted replacement); settings: for Ki, linear BBB transport (unidirectional influx rate): 15 mo, iv, albumin-corrected
Description: (§1) Ten micrograms of human insulin (Sigma-Aldrich, St. Louis, MO, USA) was diluted in 0.25 M chloride-free sodium phosphate buffer (PB), pH 7.5, and radioactivity labeled with 0.5–1 mCi Na^125I (Perkin Elmer, Waltham, MA, USA) using the chloramine-T (Sigma-Aldrich) method similar to our previously reported methods. […] Protein labelling by ^125I or by ^99mTc isotopes was characterized by 15% trichloroacetic acid (TCA) precipitation.
(§2) Mice were anesthetized with an intraperitoneal injection of 0.1–0.15 ml 40% urethane to minimize pain and distress. […] Blood from the left carotid artery was collected between 0.5 and 10 min after intravenous injection. Mice were immediately decapitated and their whole brains quickly removed and weighed. Each mouse provided a single blood sample and time matched brain sample. The arterial blood was centrifuged at 5400g for 10 min at 4 °C and serum collected. The brains were dissected into regions according to the method described in Ref.[56] and weighed. The levels of radioactivity in serum (50 μl) and brain regions were counted in a gamma counter (Wizard2, Perkin Elmer, Waltham, MA). […] Expt was calculated from the formula:1 Exposuretime=∫0tCptdt/Cpt, where Cp is the level of radioactivity (cpm) in serum at time (t). Expt corrects for the clearance of peptide from the blood. The influx of insulin was calculated by multiple-time regression analysis as described by Patlaket al.[55],[57]:2 Am/Cpt=Ki∫0tCptdt/Cpt+Vi, where Am is level of radioactivity (cpm) per g of brain tissue at time t, Cpt is the level of radioactivity (cpm) per ml arterial serum at time t, Ki (μl/g-min) is the steady-state rate of unidirectional solute influx from blood to brain. Vi (μl/g) is the level of rapid and reversible binding for brain which usually is a combination of vascular space plus any brain endothelial cell receptor binding. The brain/serum (B/S) ratios for insulin were corrected for vascular space by subtracting the corresponding ratio for albumin, yielding a delta B/S ratio. The linear portion of the relation between the delta B/S ratio versus Expt was used to calculate the Ki (μl/g-min) with its standard error term, and the y-intercept determined as representation of the Vi (μl/g)[55].
(§3) As a priori sex differences were expected, male and female data were analyzed separately. Regression analyses and other statistical analyses were performed with Prism 8.0 (GraphPad Software Inc., San Diego, CA, USA) and SPSS (Chicago, IL) software. Brain weight means are reported with their standard error terms and analyzed using two-way analysis of variance (ANOVA) followed by Sidak’s post hoc test when appropriate. For pharmacokinetic studies, the slope of the linear regression lines (Ki), reported with their correlation coefficients (r), and y-intercepts (Vi) were compared statistically using the Prism software, as described.

brain endothelial cell = experiment: 125I-insulin reversible vascular binding (Vi), y-intercept of multiple-time regression; type: in vivo, mice (human E3- and E4-targeted replacement); settings: for Vi, reversible vascular binding: 15 mo, iv, albumin-corrected
Description: as §1, §2, §3

[2] = female E3 HFD mice, hippocampus
[3] = female E3 HFD mice, parietal cortex
[4] = female E3 HFD mice, pons/medulla
[5] = female E3 LFD mice, hippocampus
[6] = female E3 LFD mice, pons/medulla
[7] = female E4 HFD mice, frontal cortex
[8] = female E4 HFD mice, pons/medulla
[9] = female E4 LFD mice, hypothalamus
[10] = female E4 LFD mice, pons/medulla
[11] = male E3 HFD mice, occipital cortex
[12] = male E3 LFD mice, occipital cortex
[13] = male E3 LFD mice, olfactory bulb
[14] = male E4 LFD mice, parietal cortex

With “125I-insulin: human insulin (Sigma-Aldrich) radioactively labeled with Na125I by the chloramine-T method” the “Ki, linear BBB transport (unidirectional influx rate)” value (shortened to “Ki, linear BBB transport”) ([1]; female E3 HFD mice, cerebellum) was 1.34 µL/g/min, the “Ki, linear BBB transport” value [1, 2] was 0.96 µL/g/min and the “Ki, linear BBB transport” value ([1]; female E3 HFD mice, occipital cortex) was 1.03 µL/g/min. The “Ki, linear BBB transport” value ([1]; female E3 HFD mice, olfactory bulb) was 1.19 µL/g/min, the “Ki, linear BBB transport” value [1, 3] was 0.95 µL/g/min and the “Ki, linear BBB transport” value [1, 4] was 1.31 µL/g/min. The “Ki, linear BBB transport” value ([1]; female E3 HFD mice, striatum) was 1.32 µL/g/min, the “Ki, linear BBB transport” value ([1]; female E3 HFD mice, thalamus) was 0.91 µL/g/min and the “Ki, linear BBB transport” value ([1]; female E3 LFD mice, cerebellum) was 1.17 µL/g/min. For the same substance, the “Ki, linear BBB transport” value [1, 5] was 1.43 µL/g/min, the “Ki, linear BBB transport” value ([1]; female E3 LFD mice, midbrain) was 0.78 µL/g/min and the “Ki, linear BBB transport” value ([1]; female E3 LFD mice, occipital cortex) was 0.73 µL/g/min. For the same substance, the “Ki, linear BBB transport” value ([1]; female E3 LFD mice, olfactory bulb, no significant transport (p > 0.05)) was 1.06 µL/g/min, the “Ki, linear BBB transport” value ([1]; female E3 LFD mice, parietal cortex, no significant transport (p > 0.05)) was 0.64 µL/g/min and the “Ki, linear BBB transport” value [1, 6] was 0.91 µL/g/min. For the same substance, the “Ki, linear BBB transport” value ([1]; female E3 LFD mice, striatum) was 0.56 µL/g/min, the “Ki, linear BBB transport” value ([1]; female E3 LFD mice, thalamus, no significant transport (p > 0.05)) was 0.71 µL/g/min and the “Ki, linear BBB transport” value ([1]; female E4 HFD mice, cerebellum) was 1.04 µL/g/min. For the same substance, the “Ki, linear BBB transport” value [1, 7] was 0.62 µL/g/min, the “Ki, linear BBB transport” value ([1]; female E4 HFD mice, hypothalamus) was 1.41 µL/g/min and the “Ki, linear BBB transport” value ([1]; female E4 HFD mice, olfactory bulb) was 1.34 µL/g/min. The “Ki, linear BBB transport” value ([1]; female E4 HFD mice, parietal cortex) was 0.92 µL/g/min, the “Ki, linear BBB transport” value [1, 8] was 1.27 µL/g/min and the “Ki, linear BBB transport” value ([1]; female E4 HFD mice, striatum, no significant transport (p > 0.05)) was 0.85 µL/g/min. For the same substance, the “Ki, linear BBB transport” value ([1]; female E4 LFD mice, cerebellum) was 1.63 µL/g/min, the “Ki, linear BBB transport” value [1, 9] was 1.12 µL/g/min and the “Ki, linear BBB transport” value ([1]; female E4 LFD mice, midbrain) was 0.50 µL/g/min. The “Ki, linear BBB transport” value [1, 10] was 0.81 µL/g/min, the “Ki, linear BBB transport” value ([1]; female E4 LFD mice, striatum, no significant transport (p > 0.05)) was 0.30 µL/g/min and the “Whole brain BBB transport or vascular binding” value ([1]; females, effect of genotype or diet) was “no differences”. For the same substance, the “Ki, linear BBB transport” value ([1]; male E3 HFD mice, cerebellum) was 1.08 µL/g/min, the “Ki, linear BBB transport” value ([1]; male E3 HFD mice, hippocampus, no significant transport (p > 0.05)) was 1.08 µL/g/min and the “Ki, linear BBB transport” value ([1]; male E3 HFD mice, hypothalamus, no significant transport (p > 0.05)) was 0.57 µL/g/min. For the same substance, the “Ki, linear BBB transport” value ([1]; male E3 HFD mice, midbrain, no significant transport (p > 0.05)) was 0.96 µL/g/min, the “Ki, linear BBB transport” value [1, 11] was 0.88 µL/g/min and the “Ki, linear BBB transport” value ([1]; male E3 HFD mice, parietal cortex, no significant transport (p > 0.05)) was -0.07 µL/g/min. For the same substance, the “Ki, linear BBB transport” value ([1]; male E3 HFD mice, striatum, no significant transport (p > 0.05)) was 0.04 µL/g/min, the “Ki, linear BBB transport” value ([1]; male E3 HFD mice, thalamus, no significant transport (p > 0.05)) was 0.65 µL/g/min and the “Ki, linear BBB transport” value ([1]; male E3 LFD mice, cerebellum) was 1.06 µL/g/min. For the same substance, the “Ki, linear BBB transport” value ([1]; male E3 LFD mice, hippocampus) was 0.92 µL/g/min, the “Ki, linear BBB transport” value ([1]; male E3 LFD mice, hypothalamus) was 1.22 µL/g/min and the “Ki, linear BBB transport” value ([1]; male E3 LFD mice, midbrain) was 0.40 µL/g/min. For the same substance, the “Ki, linear BBB transport” value [1, 12] was 0.75 µL/g/min, the “Ki, linear BBB transport” value [1, 13] was 1.28 µL/g/min and the “Ki, linear BBB transport” value ([1]; male E3 LFD mice, pons/medulla) was 1.41 µL/g/min. For the same substance, the “Ki, linear BBB transport” value ([1]; male E3 LFD mice, striatum, no significant transport (p > 0.05)) was 0.59 µL/g/min, the “Ki, linear BBB transport” value ([1]; male E3 LFD mice, thalamus, no significant transport (p > 0.05)) was 0.56 µL/g/min and the “Ki, linear BBB transport” value ([1]; male E4 HFD mice, hippocampus, no significant transport (p > 0.05)) was 0.36 µL/g/min. The “Ki, linear BBB transport” value ([1]; male E4 HFD mice, hypothalamus, no significant transport (p > 0.05)) was 0.35 µL/g/min, the “Ki, linear BBB transport” value ([1]; male E4 HFD mice, pons/medulla) was 0.65 µL/g/min and the “Ki, linear BBB transport” value ([1]; male E4 HFD mice, striatum, no significant transport (p > 0.05)) was -0.12 µL/g/min. For the same substance, the “Ki, linear BBB transport” value ([1]; male E4 LFD mice, frontal cortex) was 0.65 µL/g/min, the “Ki, linear BBB transport” value ([1]; male E4 LFD mice, hippocampus) was 1.28 µL/g/min and the “Ki, linear BBB transport” value ([1]; male E4 LFD mice, hypothalamus, no significant transport (p > 0.05)) was 0.46 µL/g/min. For the same substance, the “Ki, linear BBB transport” value ([1]; male E4 LFD mice, midbrain) was 0.53 µL/g/min, the “Ki, linear BBB transport” value [1, 14] was 0.73 µL/g/min and the “Ki, linear BBB transport” value ([1]; male E4 LFD mice, striatum, no significant transport (p > 0.05)) was 0.57 µL/g/min. For the same substance, the “Whole brain BBB transport rate (Ki)” value ([1]; males, decreases due to HFD, p = 0.056) was “did not reach significance”, the “Vi, reversible vascular binding” value (brain endothelial cell; [2]) was 5.8 µL/g and the “Vi, reversible vascular binding” value (brain endothelial cell; female E3 HFD mice, midbrain) was 2.1 µL/g. The “Vi, reversible vascular binding” value (brain endothelial cell; [3]) was 2.3 µL/g, the “Vi, reversible vascular binding” value (brain endothelial cell; [4]) was 4.4 µL/g and the “Vi, reversible vascular binding” value (brain endothelial cell; female E3 LFD mice, frontal cortex) was 6.3 µL/g. For the same substance, the “Vi, reversible vascular binding” value (brain endothelial cell; [5]) was 5.1 µL/g, the “Vi, reversible vascular binding” value (brain endothelial cell; female E3 LFD mice, hypothalamus) was -0.2 µL/g and the “Vi, reversible vascular binding” value (brain endothelial cell; female E3 LFD mice, olfactory bulb) was 11.7 µL/g. For the same substance, the “Vi, reversible vascular binding” value (brain endothelial cell; [6]) was 7.9 µL/g, the “Vi, reversible vascular binding” value (brain endothelial cell; female E3 LFD mice, striatum) was 4.0 µL/g and the “Vi, reversible vascular binding” value (brain endothelial cell; female E3 LFD mice, thalamus) was 8.4 µL/g. For the same substance, the “Vi, reversible vascular binding” value (brain endothelial cell; [7]) was 5.2 µL/g, the “Vi, reversible vascular binding” value (brain endothelial cell; female E4 HFD mice, occipital cortex) was 4.1 µL/g and the “Vi, reversible vascular binding” value (brain endothelial cell; [8]) was 3.0 µL/g. For the same substance, the “Vi, reversible vascular binding” value (brain endothelial cell; female E4 LFD mice, hippocampus) was 8.8 µL/g, the “Vi, reversible vascular binding” value (brain endothelial cell; [9]) was 4.4 µL/g and the “Vi, reversible vascular binding” value (brain endothelial cell; female E4 LFD mice, midbrain) was 5.4 µL/g. For the same substance, the “Vi, reversible vascular binding” value (brain endothelial cell; female E4 LFD mice, occipital cortex) was 3.9 µL/g, the “Vi, reversible vascular binding” value (brain endothelial cell; female E4 LFD mice, parietal cortex) was 7.9 µL/g and the “Vi, reversible vascular binding” value (brain endothelial cell; [10]) was 9.4 µL/g. The “Vi, reversible vascular binding” value (brain endothelial cell; female E4 LFD mice, striatum) was 6.3 µL/g, the “Vi, reversible vascular binding” value (brain endothelial cell; female E4 LFD mice, thalamus) was 8.8 µL/g and the “Vi, reversible vascular binding” value (brain endothelial cell; [11]) was 0.2 µL/g. For the same substance, the “Vi, reversible vascular binding” value (brain endothelial cell; male E3 HFD mice, olfactory bulb) was 0.4 µL/g, the “Vi, reversible vascular binding” value (brain endothelial cell; male E3 HFD mice, pons/medulla) was 1.7 µL/g and the “Vi, reversible vascular binding” value (brain endothelial cell; male E3 HFD mice, thalamus) was 2.3 µL/g. For the same substance, the “Vi, reversible vascular binding” value (brain endothelial cell; male E3 LFD mice, frontal cortex) was 4.0 µL/g, the “Vi, reversible vascular binding” value (brain endothelial cell; [12]) was 5.0 µL/g and the “Vi, reversible vascular binding” value (brain endothelial cell; [13]) was 5.9 µL/g. The “Vi, reversible vascular binding” value (brain endothelial cell; male E3 LFD mice, parietal cortex) was 5.8 µL/g, the “Vi, reversible vascular binding” value (brain endothelial cell; male E4 HFD mice, pons/medulla) was 3.4 µL/g and the “Vi, reversible vascular binding” value (brain endothelial cell; male E4 HFD mice, striatum) was 4.2 µL/g. For the same substance, the “Vi, reversible vascular binding” value (brain endothelial cell; male E4 LFD mice, cerebellum) was 8.1 µL/g, the “Vi, reversible vascular binding” value (brain endothelial cell; male E4 LFD mice, hypothalamus) was 8.0 µL/g and the “Vi, reversible vascular binding” value (brain endothelial cell; male E4 LFD mice, occipital cortex) was 4.1 µL/g. For the same substance, the “Vi, reversible vascular binding” value (brain endothelial cell; [14]) was 3.4 µL/g, the “Vi, reversible vascular binding” value (brain endothelial cell; male E4 LFD mice, striatum) was 4.4 µL/g and the “Vi, reversible vascular binding” value (brain endothelial cell; male E4 LFD mice, thalamus) was 4.1 µL/g. The “Whole brain reversible vascular binding (Vi, y-axis intercept)” value (brain endothelial cell; males, between apoE isoform/diet groups, p = 0.002) was “differences”.
